40 sequences from the nanobody polyreactivity screen of Harvey et al. (2022) can be followed below.

A short description of the data set: yeast display, Sf9 membrane polyspecificity reagent, FACS + sequencing; frameworks hold sequencing errors. The method, boiled down:
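Synthetic nanobody libraries on Saccharomyces cerevisiae BJ5465 were galactose-induced for 36–48 hours, stained 1 hour at 4 °C with 10% biotinylated, detergent-solubilized Sf9 membrane reagent and enriched on streptavidin microbeads. FACS then separated cells into low and high (top ~1%) gates by anti-HA (expression) and streptavidin (reagent binding) fluorescence. Genes were colony-PCR amplified, MiSeq 2 × 250 sequenced and CDR-length filtered. A clone's polyreactivity label is that of its gate of origin.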
Take “QVQLVESGGGLVQAGGSLRLSCAASGRIFRYYAMGWYRQAPGKERELVAAITRGGSTNYADSVKGRFTISRDNAKNTVYLQMNSLKPEDTAVYYCATRQSWYPRWMDYWGQGTQVTVSS”: the “polyreactivity (PSR sort gate)” value is listed as “high polyreactivity”.

As to “QVHLVESGGGLVQAGGSLRLSCAASGRTFKYYAMGWYRQAPGKERELVAAISSRGGSTYYADSVKGRFTISRDNAKNTVYLQMNSLKPEDTAVYYCAKGTYLSTSTVANDYWGQGTQGTVSS”, the “polyreactivity (PSR sort gate)” value is “high polyreactivity”.

“QVQLVESGGGLVQARGSLRLSCAASGSIFINNTRGWYRQAPGIEREWVAAISITGGSTYYADSVKGRFTISRDNAKNSVYLQMNSLKPEDTAVDYCAADPLQLYDYNYWGQGTQVTVSS”: the “polyreactivity (PSR sort gate)” value is on record as “low polyreactivity”.

As for “QVQLVESGGGLVQAGGSLRLSCAASGRTFGVYAMGWYRQAPGKERELVARIRYSGGTTRYADSVKGRFTISRDNAKNTVYLQMNSLKPEDTAVYYCAATNWWGTEYDYWGQGTQVTVSS”, the “polyreactivity (PSR sort gate)” value is “high polyreactivity”.

In the case of “QEHLVESGGGLVQAGGSLRLSCAAYGSIFVSYAMGWYRQAPGKERELVAAISWSGGSTYYADSVKGRFTISRDNAKNTVYLQMNSLKPEDTAVYYCNGVPSEGFDWGQGTQVTVSS”, the “polyreactivity (PSR sort gate)” value was “low polyreactivity”.

“QVQLVESGGGLVQAGGSLRLSSAATGRTFPSNAMGWYRQAPGKERELVAAISVSSGRTYYADSVKGRFTISRDNAKNTVYLLMNSLKPEDTAVYYCAALWARYPYLFGFDYWGQGTQVTVSS”: the “polyreactivity (PSR sort gate)” value was “high polyreactivity”.

Regarding “QVQLVESGGGLVQAGGSLRLSCAASGFTFRFNAMGWYRQAPGKERELVAAIRYSSGSTYYADSVKGRFTISRDNAKNTVYLEMNSLKPEDTAVYYCAAEQDYNRGYVTGRYYYWGQGTQVTVSS”, the “polyreactivity (PSR sort gate)” value is listed as “high polyreactivity”.

Consider “QVQLVESGGGLVQAGGSLRLSCAASGSISPQNVMGWYRQAPGKERELVAAITGGGSTNYADSVKGRFTISRDNAKQTVYLQLNSLKPEDTAVYYCNADYFQDRLDYWGQGTQVTVSS”, for which the “polyreactivity (PSR sort gate)” value is reported as “low polyreactivity”.

On to “QVQHVESGGGLVQAVGSLRLSCAASGNIFDRNAMGWYRQARGKERELVAAISRSGGRTYYADSVKGRFTISRDNAKNTVYLQMNSLKPEDTAVYYCNRRYRKYSSAKYDYWGQGTQVTVSS”, for which the “polyreactivity (PSR sort gate)” value was “high polyreactivity”.

For the sequence “QVQLVESGGGLVQAGGSLRLSCAASGSTFYDNAMGWYRQAPGKERELVASIRSGGSTKYADSVKGRFTISRDNAKNTVYLQMNSLKPEDTAVYYCAADVHFVKDPPVKSIYGKFYYWGQGTQVTVSS”, the “polyreactivity (PSR sort gate)” value was “low polyreactivity”.

Consider “QVQLVESGGGLVQAGGSLRLSCAASGRTFRRNAMGWYRQAPGKERELVAAISWSGSRTYYADSVKGRFTISRDNAKKTVYLQMNSLKPEDTAVYYCAAEVWSTQGSATVQYDYLGQGTQVTVSS”, for which the “polyreactivity (PSR sort gate)” value is “high polyreactivity”.

As to “QVQIVESGGGLVQAGGSLSLSCAASGRTFQRNAMGWYRQAPGKERELVAAITTGSRTYYADSVKGRFTISRDNAKNTVYLQMNSLKPEDTAVYYCAAVATRRDYGYWGQGTQVTVLS”, the “polyreactivity (PSR sort gate)” value is “high polyreactivity”.

Take “QVQLVESAGGLVQAGGSLRLSCAASGRIFSRYAMGWYRQAPGKERELVAAITQSGTSTYYADSVKGRFTISRDNAKNTVYLQMNSLKPEDTAVYYCNAYRQYRYDYWGQGTQVTVSS”: the “polyreactivity (PSR sort gate)” value is listed as “low polyreactivity”.

On to “QVQLVESGGGLVQAGGSLRLSCAASGLSFGDYTMGWYRQAPGKERELVAAITGSGASTYYADSVKGRFTISRDNAKNTVYLQMTRLKPEDTAGYYCAAERTPSYRAYDYWGQATQVTVSS”, for which the “polyreactivity (PSR sort gate)” value is listed as “low polyreactivity”.

Regarding “QVQLVESGGGLVQAGGSLRLSCAASGSTYYAYAMGWYRQAPGKEREFVAAISSGGGSTYYADSVKGRFTISRDNAKNTVYLQMNSLKPVDTAVYYCAAVLYYYWRGYGPRSNRYDYWGQGTQVTVSS”, the “polyreactivity (PSR sort gate)” value is recorded as “high polyreactivity”.

For the sequence “QVQLVESGGGLVQAGDSLRLSCAASGFIFYYYTMGWYRQAPGKEREFVAAITYSGGRTYYADSVKGRFTISRDNAKNTVYLQMNSLKPQDTAVYYCADVPRYGPSSRMDYWGQGTQVTVSS”, the “polyreactivity (PSR sort gate)” value is listed as “high polyreactivity”.

Turning to “QVQLVESGGGLVQAGGSLRLSCAASGRTFYSYAMGWYRQAPGKERELVAGITWSGTSTYYADSVKGRFTISRDNAKNTVYLQMNSLKPEDTAVYYCAAATLYSRYDYWGQGSQVTVSS”, the “polyreactivity (PSR sort gate)” value is given as “low polyreactivity”.

In the case of “QVKLVESGGGLVQAGGSLRLSWAASGSILNRYAMGWYRQAPGKERELVAAITGSSGSTYYADSVKGRFTISRDNAKNTVYLQMNSLKPEDTAVYYCATAFRNGRGSYYYWGQGTQVTVSS”, the “polyreactivity (PSR sort gate)” value was “high polyreactivity”.

Turning to “QVQLVESGGGLVQAGGSLRLSCDASGLIFGPYTMGWYRQAPGKERELVAAISYGGVSTYYADSVKGRFTISRDNAKNTVYLQMNSLNPEDTAVYYCARGDSTRVIRPSAREYDYWGQGTQVTVSS”, the “polyreactivity (PSR sort gate)” value was “low polyreactivity”.

Turning to “QVQLVESGGGLVQAGGSLRLSCAASGSTFYRYAMGWYRQAPGKERELVAAITSAGSTNYADSVKGRFTISRDNAKNTVYLQMNSLKPEDTAVYYCAADHGRPYFSYDYWGQGTQVTVSS”, the “polyreactivity (PSR sort gate)” value was “low polyreactivity”.

For “QVQLVESGGGLVQAGGSLPLSCAASGSTFTYYAMGWYRKAPGKEGELVARITWTGGRTYYADSVKGRFTISRGNAKNTVYLQMNSVKTEDTAVYYCNALPYFFETQYDYWGQGTQVTVSS”, the “polyreactivity (PSR sort gate)” value is reported as “low polyreactivity”.

In the case of “QVQLVESGVGLVQAGGSLRLSCAASGFMFGGSAMGWKRQAPGKERELVAAITRSGGSTYYADSVKGRFTISRDNAKNTVYLQMNSLKPEDTAVYYCAAERQPYRTSSYNYWGQGTQVTVSS”, the “polyreactivity (PSR sort gate)” value is on record as “high polyreactivity”.

Consider “QVQLVESGGGLVQAGGSLRLSCAASGFILNKNVMGWYRQAPGKERELVAAITASGSSTYYADSVKGRFTISRDNAKNTVYLQMNSLKPEDTAVYYCAARGYWSSYAPRFNYWVQGTQVTVSS”, for which the “polyreactivity (PSR sort gate)” value is “high polyreactivity”.

“QFHLVESGGGLLQAGGSLRLSCAASGRIFYANDMGWYRQAPGKERELLAAISQSGGSTFYADSVKGRFTISRDNAKNTVYLQMNSLKPEDTAVYYCATDYYGPVYDLDYDYWGQGTQVSVSS”: the “polyreactivity (PSR sort gate)” value is given as “low polyreactivity”.

As to “QVQLVESGGGLVQAGGSLRLSCAASGSIFGIYAMGWYRQAPGKERELVAAIRRGGSTYYADSVKGRFTISRDNAKNTVYLQMNSLKPEDTAVYYCAARKYRLWGKGVDYDYWGQGTQVTVSS”, the “polyreactivity (PSR sort gate)” value was “high polyreactivity”.

Take “QVQLVESGGGLVQAGGSLRLSCAASGLTFAYNAMGWYRQAPGKARQLVASINWSDSSTYYADSVKGRFTISRDNAKNTVYLQMHSLKPEDTEVYYCAADAYYVGQGYDYGGQGTQVTVSS”: the “polyreactivity (PSR sort gate)” value is reported as “low polyreactivity”.

Regarding “QVQLVESGGGLVQAGGSLRLSCAASGSIFRYNAMGWYRQAPGKERELVAAITWSGGSTYYADSVKGRFTISRDNAKNSVYLQMNSLKPEDTAVYYCAASPYPHYRRYTGGFYYWGQGTQVTVSS”, the “polyreactivity (PSR sort gate)” value was “high polyreactivity”.

“QVQLVESGGGLVQAGGSLRLSCAASGITFEYYAMGWYRQAPGKERELVAAIDTGGSTNYADSVKGRFTISRDNAKNTVYLQMNSLKPEDTAVYYCAADWSWWDGEDYHFEYDYWGQGTQVTVSS”: the “polyreactivity (PSR sort gate)” value is reported as “low polyreactivity”.

Turning to “QVQLVESGGGLVQAGGSLRLSCAASGRIFYGNAMGWYRQAPGKERELVAAITRSGGSTYYADSVKGRFTISRDNAKNTVYLQMKSLKPEDTAVYYCAKYRPGIPYYQYGSWGQGNQVTVSS”, the “polyreactivity (PSR sort gate)” value is “high polyreactivity”.

Consider “QVQLVESGGGLVQAGGSFRLSCAASGFTLYGNAMGWSRQAPGNDRELVATIRSTGSTTYADSVKGRFTISRDNAKNTVYLQMNSLKPEDTAVHYCAKVSTYGGRHRWPGSIYDYWGQGTQVTVSS”, for which the “polyreactivity (PSR sort gate)” value is on record as “low polyreactivity”.

Regarding “QVHHVESGGGLVQAGGSLRLSCAASGSIFWTYAMGWYRQAPGKERELVAAITSGSSTKYADSVKGRFTISRDNAKNTVYLQMYSLKPEDTAVYYCNARSYRGYRGVFLYSGLLGSDYWGQGTQVTVSS”, the “polyreactivity (PSR sort gate)” value is reported as “low polyreactivity”.

With “QVQLVESGGGLVQAGGSLRLSCAASGRIFYSYAMGWYRQAPGKERELVAAISSAGSTYYADSVKGRFTISRDNAKNTVYLQMNSLKPEDSAVYYCAAYRAGNSYYPRLNYWGQGTQVTVSS”, the “polyreactivity (PSR sort gate)” value is “high polyreactivity”.

For the sequence “QVQLVESGGGLVQPGVSLRLSCAASGRTSSSYTMGWYRQEPRKECELVAAITSGVRTYYADSVKGRFTISRDNAKNTVYLQMKSLKPEDTAVYYCNARYVPYTYCRKYFKPYDYWGLGTQVTVSS”, the “polyreactivity (PSR sort gate)” value is listed as “high polyreactivity”.

“QVQLVESGGGLVQAGGSLRLSCAASGRTFYGYAMGWYRQAPGKERELVASISRDGSTNDADSVKGRFTISRDNAKNTVYLQMNRLKPEDTEVYYCAADIWYYRYPIYYYSYDYWGQGTQVTVSS”: the “polyreactivity (PSR sort gate)” value is given as “low polyreactivity”.

Regarding “QVQLVESGGGLVQAGGSLRLSCAASGRTLELYVMGWYRQAPGKERELVAAIRWGTGSTYYADSVKGRFTISRDNAKNTVYLQMNSLKPEDTAVYYCAAVLRQYYRAYDYWGQGTQVTVSS”, the “polyreactivity (PSR sort gate)” value was “high polyreactivity”.

As to “QVQLVESGGGLVQAGGSLRLSCAASGRTISRNAMGWYRQAPGTERELVASISRSGGSTYYADSVKGRFTISRDNAKNTVYLQMNSLKPEETAVYYCAASYWHRRYDYWGQGTQVTVSS”, the “polyreactivity (PSR sort gate)” value is reported as “high polyreactivity”.

Take “QVQLVESGGGLVQAGGSLRLSCAASGFTFTHYAMGWYRQAPGKERELVAAITDTGGGTYYADSVKGRFTISRDTAKNTVYLQMNSLKPEDTAVYYCAKPTSYRGYYSWGQGTQVTVSS”: the “polyreactivity (PSR sort gate)” value is “high polyreactivity”.

Take “QVQLVESGGGLVQAGGSLRLSCAASGRIIYVKAMGWYRQAPGKERELVAAISSRGGTTYYADSVKGRFTISRDNAKNSVYLQMNSLKPEDTAVYYCNAGRVRHGNDYWGQGTQVTVSS”: the “polyreactivity (PSR sort gate)” value is “high polyreactivity”.

Regarding “QVHLVESVGGLVQAGGSLRLSCAASGRIFYRNAMGCYRQAPGKERELVAAINTGGDGTYYADSVKGRFTISRDNAKNTVYLQMNSLKPEDTAVYYCAADRSSFYWSHGTVYGYDYWGQGTQVTVSS”, the “polyreactivity (PSR sort gate)” value was “low polyreactivity”.

As to “QVQLVESGGGLVQAGGSLRLSCAASGSTFSSNAMGWYRQAPGKEREFVAAISRRTGSTYYADSVKGRFTISRDNANNTVYLQMNSLKPEDTAVYYSAATGEKLARSSFGYWGQGTQVTVSS”, the “polyreactivity (PSR sort gate)” value was “low polyreactivity”.
